IC50 data for 54 sequences are collected here from the Immune Epitope Database (IEDB).

Assay [1] deals with HLA-A*02:02. The assay is described as follows: IEDB peptide-MHC binding, purified MHC/competitive/radioactivity; ≥ and ≤ were set here for values at or beyond the usual limits of such assays.
The target in assay [2] is HLA-A*02:03. The assay is described as above.
In assay [3] the target is HLA-A*02:06. The description is as above.
In assay [4] the target is HLA-A*68:02. Described as above.
The target of assay [5] is HLA-A*02:01. The assay is described as follows: IEDB peptide-MHC binding, cellular MHC/competitive/fluorescence; ≥ and ≤ were set here for values at or beyond the usual limits of such assays. Conditions: source organism: Vaccinia virus WR.
The target in assay [6] is HLA-A*02:01. The assay can be described thus: IEDB peptide-MHC binding, purified MHC/competitive/radioactivity; ≥ and ≤ were set here for values at or beyond the usual limits of such assays. Conditions: source organism: Vaccinia virus WR.
[7] abbreviates: source organism: Influenza A virus.
The mark [8] stands for this setting: source organism: Vaccinia virus WR.
The mark [9] stands for this setting: source organism: Hepacivirus hominis.

A value given as a limit tells only on which side of the number the result lay.

One may read the IC50 as the point on the concentration scale where inhibition reaches its midpoint. As for FNMLSTVLGV, the IC50 amounted to 16 nM in assay [1] (setting [7]), 11 nM in assay [2] (setting [7]), 31 nM in assay [3] (setting [7]) and 860 nM in assay [4] (setting [7]).

FTYASALWEI: the IC50 in assay [1] (source organism: SARS-CoV1) was 1.6 nM; in assay [2] (source organism: SARS-CoV1), 6 nM; in assay [3] (source organism: SARS-CoV1), 2.5 nM; in assay [4] (source organism: SARS-CoV1), 1.7 nM.

Turning to IIGHIGHHYI, the IC50 was determined as 400 nM in assay [1] (setting [8]), 186 nM in assay [2] (setting [8]), 1350 nM in assay [3] (setting [8]) and 222 nM in assay [4] (setting [8]).

Take KLRSSPPIPM: the IC50 was 58 nM in assay [1] (setting [8]), 134 nM in assay [2] (setting [8]), 2210 nM in assay [3] (setting [8]) and 4280 nM in assay [4] (setting [8]).

Take KTIAVSVYGA: the IC50 in assay [1] (setting [8]) came to 366 nM; in assay [2] (setting [8]), 224 nM; in assay [3] (setting [8]), 427 nM; in assay [4] (setting [8]), 235 nM.

Take MLLRSAIGQV: the IC50 in assay [1] (setting [7]) amounted to 1390 nM; in assay [2] (setting [7]), 7 nM; in assay [3] (setting [7]), 242 nM; in assay [4] (setting [7]) it was 1710 nM.

Consider MLYQLLEAV, for which the values for the IC50 in assay [5] and in assay [6] were 14900 nM and 8.2 nM, respectively.

For MTSTRTIILV, the IC50 in assay [1] (setting [8]) was found to be 1980 nM; in assay [2] (setting [8]), 920 nM; in assay [3] (setting [8]) it was 217 nM; in assay [4] (setting [8]) it was 173 nM.

In the case of NMLSTVLGV, the results for the IC50 in assay [2] (setting [7]) and in assay [3] (setting [7]) were 10 nM and 71 nM, respectively.

QMWKCLIRL: the IC50 in assay [1] (setting [9]) came to 175 nM; in assay [2] (setting [9]), 317 nM; in assay [3] (setting [9]) it was 218 nM; in assay [4] (setting [9]), 3230 nM.

Turning to RIEDMFLTSV, the IC50 in assay [1] (setting [8]) was 548 nM; in assay [2] (setting [8]) it was 71 nM; in assay [3] (setting [8]) it was 168 nM; in assay [4] (setting [8]), 1430 nM.

For the sequence RLWHYPCTV, the IC50 in assay [1] (setting [9]) was found to be 165 nM; in assay [2] (setting [9]) it was 17 nM; in assay [3] (setting [9]), 131 nM; in assay [4] (setting [9]), 4310 nM.

Take SLFIESSICL: the IC50 in assay [1] (setting [8]) was found to be 99 nM; in assay [2] (setting [8]), 293 nM; in assay [3] (setting [8]) it was 982 nM; in assay [4] (setting [8]), 2160 nM.

SMHFYGWSL: the IC50 in assay [6] is 192 nM; in assay [3] (setting [8]), 383 nM; in assay [4] (setting [8]), 11 nM.

In the case of SMWALVISV, the IC50 in assay [1] (source organism: SARS-CoV1) came to 6.1 nM; in assay [2] (source organism: SARS-CoV1) it was 4.4 nM; in assay [3] (source organism: SARS-CoV1) it was 0.79 nM; in assay [4] (source organism: SARS-CoV1), 252 nM.

Regarding TLLCVLAAL, the IC50 turned out to be 8.1 nM in assay [1] (source organism: SARS-CoV1), 11 nM in assay [2] (source organism: SARS-CoV1), 8 nM in assay [3] (source organism: SARS-CoV1) and 431 nM in assay [4] (source organism: SARS-CoV1).

As to TLMNVITLV, the IC50 in assay [1] (source organism: SARS-CoV1) turned out to be 0.34 nM; in assay [2] (source organism: SARS-CoV1) it was 0.25 nM; in assay [3] (source organism: SARS-CoV1), 0.7 nM; in assay [4] (source organism: SARS-CoV1), 13 nM.

In the case of TLNEDLLEI, the IC50 in assay [1] (source organism: SARS-CoV1) was 1.4 nM; in assay [2] (source organism: SARS-CoV1), 2.2 nM; in assay [3] (source organism: SARS-CoV1) it was 56 nM; in assay [4] (source organism: SARS-CoV1), 1460 nM.

With VLAWLYAAV, the IC50 in assay [1] (source organism: SARS-CoV1) came out at 0.097 nM; in assay [2] (source organism: SARS-CoV1) it was 0.31 nM; in assay [3] (source organism: SARS-CoV1) it was 8.8 nM; in assay [4] (source organism: SARS-CoV1), 37 nM.

In assay [5], VMETDRENA had an IC50 of 8080 nM.

In assay [5], VQLVDAIDNI had an IC50 of 13300 nM.

As to VTDTINTVL, the IC50 in assay [5] turned out to be 13600 nM.

VTFNPVSDI displayed an IC50 in assay [5] of 46300 nM.

In the case of VTINNLKMM, the IC50 in assay [5] was found to be 9060 nM.

In assay [5], VTKQDELQAA displayed an IC50 of 14300 nM.

For the sequence VTKTDGIPI, the IC50 in assay [5] turned out to be 8570 nM.

On to VTKTDGIPIT, for which, in assay [5], the IC50 came to 27500 nM.

As to VTKVNNYDDT, the IC50 in assay [5] was not below 70000 nM.

In the case of VTLNAGNIDI, the IC50 in assay [5] came to 12900 nM.

For VTLNASQYA, the IC50 in assay [5] was 5010 nM.

For VTLQKVLHVT, the IC50 in assay [5] turned out to be 35900 nM.

For the sequence VTNKEGVKI, the IC50 in assay [5] came out at 57400 nM.

VTSSGAIYKL yielded an IC50 in assay [5] of 16100 nM.

Turning to VVELEPSLAT, the IC50 in assay [5] was not below 70000 nM.

In assay [5], VVKYLSGGGI returned an IC50 not below 70000 nM.

In turn, VVRRTMLSDI displayed an IC50 in assay [5] of 8520 nM.

In assay [5], VVSRHLTNDA returned an IC50 not below 70000 nM.

Consider VVSSSTIAT, for which, in assay [5], the IC50 came out at 11000 nM.

For VVYNPSTMST, in assay [5], the IC50 was found to be 57800 nM.

WIKTISKRM gave an IC50 in assay [5] of 23600 nM.

For WLTAVEHIPT, in assay [5], the IC50 came out at 6960 nM.

WTVYLIKLI yielded an IC50 in assay [5] of 7520 nM.

In turn, YASIINRDII registered an IC50 in assay [5] of 7110 nM.

Turning to YIIRRSGCRI, the IC50 in assay [5] is 43000 nM.

In turn, YIQETIRSDT had an IC50 in assay [5] of 39300 nM.

As for YIRNTLTEKI, the IC50 in assay [5] amounted to 38400 nM.

The sequence YITSGKNNM came in with an IC50 in assay [5] of 51600 nM.

Take YLNTPGLPV: the IC50 stood at 9.3 nM in assay [1] (setting [9]), 12 nM in assay [2] (setting [9]), 847 nM in assay [3] (setting [9]) and 196 nM in assay [4] (setting [9]).

Regarding YTRPEIDVL, the IC50 in assay [1] (setting [8]) amounted to 115 nM; in assay [2] (setting [8]), 74 nM; in assay [3] (setting [8]) it was 154 nM; in assay [4] (setting [8]), 528 nM.

YTVMVKINPT: the IC50 in assay [5] is 9380 nM.

In assay [5], YVESKLVDI returned an IC50 of 25300 nM.

In the case of YVGSYASNGI, the IC50 in assay [5] came out at 15200 nM.

In assay [5], YVSTGESSI returned an IC50 of 11400 nM.

Take YVTLNASQYA: the IC50 in assay [5] is 23100 nM.
